Experimental data from US9340577B2, “HLA binding motifs and peptides and their uses” (priority 1992, dated 2016).
pIC50: −log10 of the molar value. No end group written: not given here.

What follows are substances tested against A*3301 (Homo sapiens, UniProt P04439, A270S/D185E/E176V/E277Q/E87N/F33T/G231S/H175R/I121M/I218V/I322F/K168Q/K210R/L300P/L318F/M331R/P217A/Q86R/Q94H/R138Q/T323A/T345S/T97I/V358M/Y195H) (assay: biochemical).
Type: binding

Substance	pIC50
KVGSLQYLK [Peptide 66.0057]	< 4.70
KISEYRHYNK [Peptide 88.0110]	< 4.70
KTLGISYGRK [Peptide 66.0073]	< 4.70
KVGPGGYPRRK [Peptide 73.0336]	< 4.70
AACWRSRRK [Peptide 88.0260]	< 4.70
KTLGISYGRKK [Peptide 66.0090]	< 4.70

These substances were tested against HLA-A*0201 (HLA-A2.1) (Homo sapiens, UniProt P04439, D140Y/D185E/D98H/E176V/E277Q/G131W/G231S/I119V/I121R/I166T/I218V/L300P/L318F/N151K/N90K/P208A/P217A/Q86G/Q94H/R138H/R169H/T345S) (assay: biochemical).
Type: binding

Substance	binding to HLA-A2.1 (column 3; no allele head shown for these rows)	A2.1	A*0201	pIC50	A2.1 Binding
PTGHSYVLVT	0				
ITKKVADLV	0				
PKTGFLIIV		<0.0002			
QIMPKTGFLI	0.0009				
IIVLVMIA	0.0002				
QIMPKTGFL		0.0007			
STSCILESL	0.0002				
IIAREGDCA	0				
IMPKAGLLII	0.0015				
DLVQEKYL		0			
EADPTGHSYV	0				
YMCNSSCMGGM [Peptide 1323.29]			0.0075		
GIDVKEADPT	0				
AATSSSSPLV	0				
FPTTINFTR		<0.0002			
LLKYRAREPV		0			
KASEYLQLV	0.011				
EVDPIGHLYI	<0.0002				
SLRVLAAGL		0.0001			
RKLLTQDLV	0				
VTKAEMLESV	0				
FLIIVLVM		0			
ALEAQQEAL		<0.0003			

Substance	binding to HLA-A2.1 (column 3; no allele head shown for these rows)	A2.1	A*0201	pIC50	A2.1 Binding
ILESLFRAVI		0.0002			
KLLTQDLV		0.0004			
GMCCPDLSPV [Peptide 41.0157]			0.0950		
KTGFLIIVL	0.0006				
VLGTLEEVPT	0.0004				
CQLAKTCPV [Peptide 1324.07]			0.0240		
IIVLVMIAM	0.0007				
MSSCGVQGP		<0.0002			
BQLAKTBPV [Peptide 1329.14]			0.0490		
LIIVLVMI	0.0001				
GLYDGMEHV [Peptide 1586.08]				6.81	
ATVGIJIGV [Peptide 1345.02]			0.1595		
IVLVMIAM	0.0001				
GLYDGREHTV [Peptide 1586.06]				6.84	
MLGSVVGNWQYFFPV	0.012				
EAQQEALGLV	0				
LIIVLVMIAM	0.0003				
FLIIVLVMI		0.0005			
LVMIAMEGGHA	0.0005				
VQAATSSSS		<0.0002			
CILESLFRAV		0.0003			
KASESLQLV	0.0009				
PIGHLYIFA	0				

Substance	binding to HLA-A2.1 (column 3; no allele head shown for these rows)	A2.1	A*0201	pIC50	A2.1 Binding
QVMPKTGLL	0				
IIAIEGDCA	0				
CLGLSYDGLL		0			
KLLTQDLVQEKYL	0.0060				
ATSSSSPLV	0.0007				
PQSPQGASA		<0.0002			
IJIGVLVGV [Peptide 1345.01]			0.0570		
QQEALGLVC		<0.0002			
AVITKKVA	0				
VITKKVADL		<0.0003			
YLEYGRCRTVI	0.0006				
GIELMEVDPI	<0.0002				
GVQGPSLKPAM	0				
RCRTVIPHA		<0.0002			
KTGLLIIVLA	<0.0002				
VLGTLEEVPTA	0.0002				
SESLQLVFGI	0				
EVVPISHLYI	<0.0002				
VIFSKASSSL		0			
BLLAKTBPV [Peptide 1329.15]			0.1100		
VLEYVIKVSA	0.0002				
PLVLGTLEE		<0.0002			
VVEVVPISHL	<0.0002				

Substance	binding to HLA-A2.1 (column 3; no allele head shown for these rows)	A2.1	A*0201	pIC50	A2.1 Binding
EIWEELSVM	0				
PVTKAEML		0			
LQLVFGIDV	0.0004				
YVKVLEYVI	0.0002				
EALEAQQEA	0				
KLPGLLSRDL		0			
VPTAGSTDP		<0.0002			
EIFGKASESL		0			
YLIMVKBWMV [Peptide 1334.05]			0.6900		
SLHCKPEEAL		0.0002			
AMBRWGLLV [Peptide 1334.08]			0.1400		
CKPEEALEA		<0.0002			
YIFATCLGL		0.018			
SLFRAVITKKV	0.0001				
YLCNSSCMGGV [Peptide 1323.31]			0.2300		
AVITKKVAD		<0.0002			
GKASESLQL		<0.0002			
PLVLGTLEEV		0.0008			
LIIVLVMIA	0				
ALEAQQEA		0			
PVTKAEMLESV	0				
QRQPSEGSS		<0.0002			
YKHCFPEIF		<0.0002			

Substance	binding to HLA-A2.1 (column 3; no allele head shown for these rows)	A2.1	A*0201	pIC50	A2.1 Binding
VLVTCLGLSYDGL	0.0017				
LLGDNQIM		0			
SJPPPGTRV [Peptide 1345.03]			0.0545		
LLIIVLAIIA	<0.0002				
GVQGPSLKPA		0.0001			
YLEYGRCRT	0				
ATSSSSPLVL	0				
GLLGDNQI		0			
QLVFGIDVKEA	0.0001				
SREEEGPST		<0.0002			
ALNKMFBQV [Peptide 1323.04]			0.0260		
DLVQEKYLEYRQV	0				
ELSVMEVYD		<0.0002			
SLSAYIIRV [Peptide 1577.43]				7.40	
VTCLGLSYD		<0.0002			
QAALSRKVA	0				
IMPKAGLLI	0.0064				
IMPKTGFL		0.0001			
VTKAEMLGSV	<0.0002				
SLFRAVITKKVADLV	0.0004				
GREHSAYGE		<0.0002			
CLLAKTCPV [Peptide 1326.01]			0.0400		
EALGLVCVQA	0.0005				

Substance	binding to HLA-A2.1 (column 3; no allele head shown for these rows)	A2.1	A*0201	pIC50	A2.1 Binding
PRKLLTQDL		<0.0002			
KAEMLGSVV	0				
ALEAQQEALGL	0.0001				
AISRKMVELV		0			
DLQQSLRVL		0			
LLSRDLQQSL		0.0007			
DPTGHSYVL		<0.0002			
MIAMEGGHA	0.0005				
AVITKKVADL		0			
HAPEEEIWE		<0.0002			
DLESEFQAA	0				
LAETSYVKV	0				
AALREEEEGV	0				
QLVFGIDV		0			
LVGFLLLKYRA	0.0004				
YMIMVKBWMI [Peptide 1334.04]			0.2700		
PTGHSYVLV	0				
DLESEFQAAISRKMV	0				
VMVTCLGLSV	0.30				
DLVGFLLL		0			
LVMIAMEGG		<0.0002			
QIMPKAGLL		0			
RVRFFFPSL	0.0001				

Substance	binding to HLA-A2.1 (column 3; no allele head shown for these rows)	A2.1	A*0201	pIC50	A2.1 Binding
BLTIHYNYV [Peptide 1323.08]			0.0430		
GLSYDGLL		0.0001			
11546 (SLLPAIVEL) [Peptide 11546]					0.19
RAVITKKVA	0				
TLEEVPTA		0			
GLSYDGLLV	0.0047				
ILESLFRAV		0.0004			
CILESLFRAVI	0.0030				
RAREPVTKA	0				
DLESEFQAAI	0				
AVITKKVADLV	0				
EIWEELSV	0				
QAAISRKMV	0				
LVFGIELJEV [Peptide 1345.04]			0.7650		
GIEVVEVVPI	<0.0002				
KTGFLIIVLV	0.0012				
VITKKVADLV		0			
SAFPTTINFT	0				
VQEKYLEYG		<0.0002			
KAGLLIIVLA	<0.0002				
